Results reported in the supplement of paper PMC10567573.

B1: ZBED2 (parent)
chain: RAGHHPNQYATCRLCGRQVSRGPG
B2: SNX8 (parent)
chain: VVLKLFLSFSGSDVQNKLKESAQC

Variants of: B1
Assay: protein stability index of a GFP-peptide fusion (GPS, HEK-293T) (PSI 1-6); higher = more stable
Settings: c terminus: a fixed tail appended
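Also: lentivirally expressed fusions sorted by FACS into six bins by GFP to DsRed ratio, PSI derived from sequencing read proportions per bin multiplied by bin number.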

| Variant | protein stability index |
| --- | --- |
| H4V | 2.31 |
| H4K | 1.56 |
| H4N | 3.52 |
| H4R | 1.12 |
| H4A | 2.76 |
| H4T | 2.78 |
| R13S | 2.79 |
| R13K | 2.1 |
| R13D | 1.96 |
| R13E | 1.9 |
| R13W | 1.98 |
| R13I | 2.09 |
| R13V | 2.39 |
| R13Q | 1.04 |
| A10Y | 1.34 |
| A10T | 2.78 |
| A10W | 1.76 |
| A10E | 1.6 |
| A10C | 2.67 |
| A10R | 1.43 |
| Q18Y | 2.51 |
| Q18I | 2.23 |
| Q18S | 1.23 |
| Q18W | 1.27 |
| Q8M | 1.23 |

| Variant | protein stability index |
| --- | --- |
| Q8S | 1.05 |
| Q8G | 1.86 |
| Q8K | 2.78 |
| Q8P | 2.03 |
| S20P | 2.53 |
| S20H | 1.76 |
| S20M | 2.4 |
| S20T | 1.91 |
| S20K | 1.88 |
| S20L | 2.29 |
| S20V | 2.08 |
| V19E | 1.7 |
| V19I | 1.37 |
| V19Q | 2.48 |
| V19M | 1.48 |
| V19N | 1.4 |
| V19K | 3.86 |
| G24Y | 1.57 |
| G24C | 1.53 |
| G24W | 1.97 |
| G24D | 1.7 |
| G24N | 2.42 |
| G24T | 2.17 |
| G24P | 1.71 |
| G24S | 1.56 |

| Variant | protein stability index |
| --- | --- |
| G24L | 2.07 |
| P23D | 2.85 |
| P23E | 1.76 |
| P23I | 2.27 |
| P23H | 2.54 |
| R21T | 1.78 |
| R21N | 2.88 |
| R21M | 1.68 |
| R21F | 1.78 |
| R21Q | 2.25 |
| R21Y | 1.85 |
| L14C | 2.79 |
| L14G | 2.04 |
| P6H | 2.31 |
| P6G | 2.54 |
| Y9I | 2.06 |
| Y9P | 3.34 |
| Y9L | 1.6 |
| R17V | 1.49 |
| R17L | 2.64 |
| R17H | 1.29 |
| R17F | 1.96 |
| R17N | 1.31 |
| R17T | 2.26 |
| T11K | 2.56 |

| Variant | protein stability index |
| --- | --- |
| T11R | 2.01 |
| T11I | 2.27 |
| T11L | 1.7 |
| T11F | 3.34 |
| N7P | 1.56 |
| N7R | 1.46 |
| N7A | 1.78 |
| N7L | 2.67 |
| R1D | 2.57 |
| R1Q | 1.5 |
| R1N | 2.85 |
| R1M | 1.79 |
| C15K | 3.16 |
| C15T | 3.44 |
| C12L | 2.27 |
| C12D | 2.88 |
| C12F | 1.81 |
| C12E | 3.66 |
| C12S | 3.52 |
| G16H | 1.9 |
| G16K | 1.51 |
| G16P | 2.41 |
| G16T | 1.41 |
| A2D | 2.08 |
| A2S | 2.04 |

| Variant | protein stability index |
| --- | --- |
| A2F | 2.36 |
| A2P | 1.73 |
| A2K | 1.54 |
| A2I | 2.15 |
| A2G | 2.1 |
| G22D | 1.64 |
| G22I | 1.9 |
| G22E | 2.08 |
| G22W | 1.46 |
| G22K | 2.68 |
| G22C | 3.07 |
| G22T | 2.24 |
| H5G | 1.68 |
| H5I | 2.27 |
| H5K | 2.51 |
| H5A | 2.48 |
| H5T | 1.37 |
| H5C | 1.93 |
| H5E | 3.69 |
| G3D | 2.58 |
| G3W | 3.31 |
| G3H | 1.25 |

Variants of: B2
Assay: as above
Settings: c terminus: a fixed tail appended

| Variant | protein stability index |
| --- | --- |
| Q23L | 3.31 |
| Q23F | 1.71 |
| Q23Y | 2.52 |
| Q23I | 3.23 |
| Q23D | 2.27 |
| Q23A | 3.04 |
| Q23S | 1.46 |
| Q23C | 3.1 |
| Q23T | 2.48 |
| Q23K | 2.59 |
| Q23R | 2.8 |
| A22E | 3.99 |
| A22K | 2.18 |
| A22G | 3.13 |
| A22D | 4.82 |
| A22Y | 1.93 |
| A22W | 3.87 |
| A22M | 3.48 |
| A22F | 3.23 |
| A22T | 1.76 |
| A22C | 2.05 |
| C24Y | 3.1 |
| C24H | 2.17 |

| Variant | protein stability index |
| --- | --- |
| C24W | 1.84 |
| C24D | 1.9 |
| C24V | 2.91 |
| C24L | 5.49 |
| C24F | 4.02 |
| C24P | 3.78 |
| C24N | 2.99 |
| C24S | 3.35 |
| E20S | 3.97 |
| E20Q | 2.37 |
| E20N | 3.6 |
| E20Y | 3.73 |
| E20L | 1.89 |
| E20M | 2.13 |
| S21N | 2.55 |
| S21V | 2.46 |
| S21M | 2.03 |
| S21W | 2.66 |
| S21D | 1.56 |
| S21F | 1.88 |
| S21K | 2.25 |
| S21Y | 2.66 |
